According to article PMC5680255:

Experiments:
[1] = target: Photosystem II subunit S (PsbS) of Physcomitrella patens, recombinant, detergent-refolded (Physcomitrella patens); test: SDS-PAGE without boiling; PsbS refolded in FC-12, pH 5.0; samples taken day 0 to day 90 after refolding; not boiled before loading
[2] = target: Photosystem II subunit S (PsbS) of Physcomitrella patens, recombinant, detergent-refolded (Physcomitrella patens); test: SDS-PAGE without boiling; PsbS refolded in FC-12, pH 7.5; samples taken day 0 to day 90 after refolding; not boiled before loading
[3] = target: Photosystem II subunit S (PsbS) of Physcomitrella patens, recombinant, detergent-refolded (Physcomitrella patens); test: SEC; Superdex 200 5/150 GL; 100 mM sodium phosphate pH 7.5 with 0.05% FC12; detection at 260 nm
[4] = target: Photosystem II subunit S (PsbS) of Physcomitrella patens, recombinant, detergent-refolded (Physcomitrella patens); test: DOSY NMR; PsbS in FC-12, pH 5.0; 1H HN intensities, double-exponential fit
[5] = target: Photosystem II subunit S (PsbS) of Physcomitrella patens, recombinant, detergent-refolded (Physcomitrella patens); test: DOSY NMR; PsbS in FC-12, pH 7.5; 1H HN intensities, double-exponential fit
[6] = target: Photosystem II subunit S (PsbS) of Physcomitrella patens, recombinant, detergent-refolded (Physcomitrella patens); test: SEC; Superdex 200 5/150 GL; 100 mM sodium phosphate pH 7.5 with 1% OG; detection at 260 nm

Measured: stoichiometry N

Photosystem II subunit S (PsbS) of Physcomitrella patens, recombinant, detergent-refolded (natural protein)
2: all assays above
